# Experiments:
# [1] = biological target: NKp46–Ig (ACROBiosystems), used for MST and BLI (human) (UniProt O76036); assay: MST
# [2] = biological target: MYC-tagged NKp46 (extracellular domain) (human) (UniProt O76036); assay: MST
substance,measurement,setting,value
"influenza haemagglutinin, His-tagged (natural protein)",Kd,[1],1.46 µM
CRT P domain fused to the Fc region of human Ig (Fc fusion),Kd,[2],41.2 µM
